We go through one substance from patent publication EP2170953B1.

The target of test [1] is Aβ1-42 peptide, low molecular weight (LMW) monomer preparation (human). The experiment in a line: ELISA on coated fraction, Ab 0.0313 µg/ml.
Test [2] concerns the target Aβ1-42 peptide, high molecular weight (HMW) proto-fibrillar (PF) oligomer enriched preparation (human). Description: ELISA on coated fraction, Ab 0.0313 µg/ml.

Sequence of Aβ1-42 peptide, high molecular weight (HMW) proto-fibrillar (PF) oligomer enriched preparation (human) (peptide, as listed by the source, form in doubt): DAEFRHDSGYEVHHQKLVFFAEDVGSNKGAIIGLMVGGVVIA
Sequence of Aβ1-42 peptide, low molecular weight (LMW) monomer preparation (human) (peptide, as listed by the source, form in doubt): as above

In the case of 6E10 control antibody, the O.D. in test [1] was found to be 0.329 O.D; in test [2], 0.286 O.D.
